The values below come from publication PMC6522533 (2019).

Common to all, as to assay: GST pull-down, anti-Smad7 immunoblot
In one experiment the target is T1, GST-β-catenin aa575–683 (Mus musculus (Mouse), UniProt Q02248).
T1 chain: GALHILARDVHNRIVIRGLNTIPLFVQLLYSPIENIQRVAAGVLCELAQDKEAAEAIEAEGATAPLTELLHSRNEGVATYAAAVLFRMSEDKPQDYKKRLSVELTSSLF

In a further experiment the target is T2, GST-β-catenin aa575–696 (Mus musculus (Mouse), UniProt Q02248).
T2 chain: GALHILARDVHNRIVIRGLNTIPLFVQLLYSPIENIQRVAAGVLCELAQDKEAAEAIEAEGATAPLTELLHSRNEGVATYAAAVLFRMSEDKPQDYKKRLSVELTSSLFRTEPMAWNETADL

The target in a further experiment is T3, GST-β-catenin aa422–683 (Mus musculus (Mouse), UniProt Q02248).
T3 chain: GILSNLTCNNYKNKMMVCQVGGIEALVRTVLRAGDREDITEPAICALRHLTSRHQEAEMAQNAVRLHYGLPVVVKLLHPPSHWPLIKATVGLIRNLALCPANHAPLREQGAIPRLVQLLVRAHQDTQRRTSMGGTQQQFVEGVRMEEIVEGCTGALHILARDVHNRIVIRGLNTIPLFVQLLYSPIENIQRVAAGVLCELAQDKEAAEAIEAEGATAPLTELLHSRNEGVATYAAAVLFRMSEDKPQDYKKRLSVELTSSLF

The target of another experiment is T4, GST-β-catenin aa1–106 (Mus musculus (Mouse), UniProt Q02248).
T4 chain: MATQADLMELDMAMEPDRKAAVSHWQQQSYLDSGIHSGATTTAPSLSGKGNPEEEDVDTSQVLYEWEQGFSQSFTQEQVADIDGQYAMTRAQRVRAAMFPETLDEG

The target in a further experiment is T5, GST-β-catenin aa1–574 (Mus musculus (Mouse), UniProt Q02248).
T5 chain: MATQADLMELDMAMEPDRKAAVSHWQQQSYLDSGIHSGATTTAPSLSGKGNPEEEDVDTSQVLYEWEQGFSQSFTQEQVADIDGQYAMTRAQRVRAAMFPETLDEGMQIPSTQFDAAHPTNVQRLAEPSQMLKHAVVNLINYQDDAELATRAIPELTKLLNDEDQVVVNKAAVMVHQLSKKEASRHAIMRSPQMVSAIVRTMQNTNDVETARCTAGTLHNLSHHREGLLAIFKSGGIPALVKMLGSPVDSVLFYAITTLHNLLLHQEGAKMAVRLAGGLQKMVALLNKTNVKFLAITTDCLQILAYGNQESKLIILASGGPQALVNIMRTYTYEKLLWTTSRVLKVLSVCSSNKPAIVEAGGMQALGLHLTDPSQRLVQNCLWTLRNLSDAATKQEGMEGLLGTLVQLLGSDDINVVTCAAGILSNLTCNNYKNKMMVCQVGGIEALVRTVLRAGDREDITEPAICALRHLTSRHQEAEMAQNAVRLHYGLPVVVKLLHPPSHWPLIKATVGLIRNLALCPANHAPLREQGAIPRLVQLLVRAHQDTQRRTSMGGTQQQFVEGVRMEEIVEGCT

Another experiment concerns the target T6, GST-β-catenin aa120–683 (Mus musculus (Mouse), UniProt Q02248).
T6 chain: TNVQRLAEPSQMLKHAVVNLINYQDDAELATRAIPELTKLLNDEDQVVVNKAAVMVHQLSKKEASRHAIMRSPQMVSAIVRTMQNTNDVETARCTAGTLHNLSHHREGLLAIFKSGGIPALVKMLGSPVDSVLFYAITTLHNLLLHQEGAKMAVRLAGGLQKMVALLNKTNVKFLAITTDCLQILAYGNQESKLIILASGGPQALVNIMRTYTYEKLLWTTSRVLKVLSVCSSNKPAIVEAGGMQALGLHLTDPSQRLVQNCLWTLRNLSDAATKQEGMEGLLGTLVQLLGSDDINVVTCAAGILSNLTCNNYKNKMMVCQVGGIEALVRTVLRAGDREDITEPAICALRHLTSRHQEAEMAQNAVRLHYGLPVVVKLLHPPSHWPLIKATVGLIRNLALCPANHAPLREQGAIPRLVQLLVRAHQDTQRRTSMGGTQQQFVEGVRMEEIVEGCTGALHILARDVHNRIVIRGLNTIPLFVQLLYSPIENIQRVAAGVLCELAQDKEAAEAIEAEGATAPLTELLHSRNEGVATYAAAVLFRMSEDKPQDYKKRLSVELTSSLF

B1: Smad7 (GST tag removed by thrombin) (protein)
chain: MFRTKRSALVRRLWRSRAPGGEDEEEGVGGGGGGGELRGEGATDGRAYGAGGGGAGRAGCCLGKAVRGAKGHHHPHPPTSGAGAAGGAEADLKALTHSVLKKLKERQLELLLQAVESRGGTRTACLLLPGRLDCRLGPGAPASAQPAQPPSSYSLPLLLCKVFRWPDLRHSSEVKRLCCCESYGKINPELVCCNPHHLSRLCELESPPPPYSRYPMDFLKPTAGCPDAVPSSAETGGTNYLAPGGLSDSQLLLEPGDRSHWCVVAYWEEKTRVGRLYCVQEPSLDIFYDLPQGNGFCLGQLNSDNKSQLVQKVRSKIGCGIQLTREVDGVWVYNRSSYPIFIKSATLDNPDSRTLLVHKVFPGFSIKAFDYEKAYSLQRPNDHEFMQQPWTGFTVQISFVKGWGQCYTRQFISSCPCWLEVIFNSR
B1: the binding result with GST-β-catenin aa575–683 is “binds”; with GST-β-catenin aa575–696 it was “binds”; with GST-β-catenin aa422–683, “binds”; in the experiment with GST-β-catenin aa1–106, “no binding”; in the experiment with GST-β-catenin aa1–574, “no binding”; with GST-β-catenin aa120–683, “binds”.
